Test results from the supplement of paper PMC10126150.
± gives the standard deviation of the averaged measurements.

The sequences below were run on ATP (assay: switch fluorescence ratio, 500 uM ATP over buffer (Cy3 cluster intensity, sum of 5 cycles each) (fold (ratio)); higher = stronger signal-on switching upon ATP binding; sequences stand for … in TCGTCGGCAGCGTCAGATGTGTATAAGAGACAGTTTTTTTTTTTTTTTTTTTTTTTTT…TC). Details: aptamer strand: ATP DNA aptamer (quencher-CACCTGGGGGAGTATTGCGGAGGAAGG + anchor), 100 nM annealed; ATP concentration: 500 uM.
In short: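 Imaging in selection buffer was followed by imaging after 15 min with 500 uM ATP at 22 °C, for Cy3-labelled switching-strand clusters annealed to 100 nM quencher-labelled ATP aptamer on a modified Illumina MiSeq flow-cell. Five of these buffer/ATP cycles ran, separated by NaOH stripping and re-annealing. The fluorescence ratio per cluster is summed target-cycle over summed buffer-cycle Cy3 intensity, averaged per switch-domain sequence; clusters outside 100-1000 RFU were removed.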
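Also: ATP exposure 15 min at 22 °C before imaging.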

Sequence	switch fluorescence ratio
GATTTTTCGT	0.973 ± 0.01
GATTTTTGTG	0.992 ± 0.018
GCAAAAATGC	1.03 ± 0.031
GCAAAATAAA	1.05 ± 0.12
GCAAACGCAG	1.05 ± 0.032
GCAAACGGGG	1.07 ± 0.041
GCAAAGTGGG	0.9909 ± 0.0077
GCAAATTTTA	1.02 ± 0.015
GCAACATTCT	1.03 ± 0.022
GCAACCATTA	1.03 ± 0.018
GCAAGAATTT	0.982 ± 0.046
GCAAGACGTT	1.51 ± 0.045
GCAAGATGAT	1.17 ± 0.17
GCAAGATTGA	0.999 ± 0.044
GCAAGCAAGA	1.18 ± 0.067
GCAAGCTAGG	1.03 ± 0.017
GCAAGGGGGG	1.09 ± 0.081
GCAAGGTTAT	1.01 ± 0.018
GCAAGTAGTT	1.03 ± 0.053
GCAAGTTTGC	1.04 ± 0.042
GCAATAGGGT	1.37 ± 0.037
GCAATAGTGG	1.25 ± 0.025
GCAATCGTGG	1.035 ± 0.0042
GCAATTGTTG	1.021 ± 0.01
GCACAATTAG	1.04 ± 0.0071

Sequence	switch fluorescence ratio
GCACCAGGGG	1.81 ± 0.81
GCACCTTGAG	1.001 ± 0.0014
GCACGAATGC	1.06 ± 0.025
GCACGCGTGC	1.01 ± 0.044
GCACGGGGCA	1.01 ± 0.023
GCACGGGGGG	1.03 ± 0.0077
GCACTCTGGG	0.995 ± 0.029
GCACTGGGGC	1.01 ± 0.023
GCACTGTGGC	0.992 ± 0.032
GCACTTGTAA	1.005 ± 0.0056
GCAGAATGGG	1.08 ± 0.12
GCAGAGGGGT	1.04 ± 0.066
GCAGATAGGG	0.998 ± 0.016
GCAGCCGTGT	1.03 ± 0.04
GCAGCGGGGG	1.01 ± 0.027
GCAGCTTTTA	1.09 ± 0.018
GCAGGAGATT	1.01 ± 0.032
GCAGGAGTAG	1.01 ± 0.038
GCAGGCCCGA	1.009 ± 0.0034
GCAGGCTTGG	1.012 ± 0.0061
GCAGGGGGTG	1.11 ± 0.076
GCAGGTAGGG	0.998 ± 0.039
GCAGGTCTGT	0.9688 ± 0.0037
GCAGGTGAGG	1.18 ± 0.044
GCAGGTGGAG	1.02 ± 0.06

Sequence	switch fluorescence ratio
GCAGGTGGCG	1.01 ± 0.044
GCAGGTTCGG	1.01 ± 0.037
GCAGGTTGGT	1.036 ± 0.0042
GCAGTAGTTG	1.01 ± 0.026
GCAGTATGAG	0.99 ± 0.021
GCAGTATTTT	1.0075 ± 0.00081
GCAGTCTGGT	0.98106 ± 0.00091
GCAGTCTTTG	0.9936 ± 0.0046
GCAGTGTGCT	0.982 ± 0.031
GCAGTTTGGA	0.989 ± 0.015
GCAGTTTGGT	0.9978 ± 0.0039
GCAGTTTTA	1 ± 0.014
GCATAAAGGG	0.989 ± 0.019
GCATAATTTT	1.01 ± 0.028
GCATACAGGA	1.02 ± 0.024
GCATATTAGG	0.999 ± 0.03
GCATCCGTCG	1.04 ± 0.031
GCATGATTTA	1 ± 0.051
GCATGCTTAA	0.9876 ± 0.006
GCATGGGCAG	0.999 ± 0.023
GCATGGGTAC	1.05 ± 0.018
GCATGGTGAC	1.058 ± 0.0028
GCATGGTTAA	1.019 ± 0.0023
GCATGGTTAT	0.993 ± 0.036
GCATGTCGTT	1.001 ± 0.0047

Sequence	switch fluorescence ratio
GCATGTTAGG	1.01 ± 0.063
GCATTAGGGT	1.02 ± 0.014
GCATTATCTA	1.01 ± 0.07
GCATTATTGG	0.998 ± 0.016
GCATTCAATG	1.01 ± 0.024
GCATTCGATG	0.981 ± 0.013
GCATTTAAGT	0.993 ± 0.06
GCATTTGATG	1.0205 ± 0.00084
GCATTTTAGG	0.967 ± 0.045
GCATTTTATT	0.9938 ± 0.0026
GCCAACGCTG	1.1 ± 0.046
GCCAATGATC	1.01 ± 0.073
GCCAGAGAGT	1.01 ± 0.012
GCCAGCATAT	1.153 ± 0.0062
GCCAGGATTG	1.02 ± 0.013
GCCAGGCTGG	1.04 ± 0.021
GCCAGGGAGG	1.03 ± 0.026
GCCAGTCTGG	0.987 ± 0.025
GCCAGTGTTT	1.02 ± 0.056
GCCATAATAT	1.01 ± 0.023
GCCATAGCTG	1.007 ± 0.0029
GCCATATTTC	0.998 ± 0.041
GCCATCCTGC	1.05 ± 0.042
GCCATGGACA	0.9847 ± 0.00086
GCCATTGTTG	0.998 ± 0.018
